Results on one substance are retold here after PMC11435379.

In experiment [1] the target is Cetuximab (Erbitux, 5 mg/mL). As to the kind of experiment: SEC; SE/UHPLC-UV as a10; sample exposed to accelerated light (250 W/m^2) for 24 h.
For experiment [2], the target named is Cetuximab (Erbitux, 5 mg/mL). The experiment in a line: SEC; SE/UHPLC-UV as a10; sample exposed to daylight for 24 h.

Where “and” joins values, the source holds several entries; their conditions need not be identical. Identical values can stand only once.

Take Cetuximab (Erbitux, 5 mg/mL) (antibody): the stoichiometry N in experiment [1] was 3 and 8 and 5; in experiment [2], 3.
